Reference: paper PMC2885749

Molecular target: TolCΔ2–22 (signal sequence-less mature TolC, His-tagged) (E. coli) (UniProt P02930)
Test: SDS-PAGE of unheated samples

- stoichiometry N: 3
Substance: TolCΔ2–22 (signal sequence-less mature TolC, His-tagged) (from UniProt P02930 23-493) (natural protein)
